The record followed here is patent US8716246B2, “Azuvirin peptides” (The Regents of the University of California, priority 2011, dated 2014).

Square brackets hold non-standard residues; d marks the D form. Peptide text beside a SMILES is read from it. * marks the point of attachment. Oic = O=C(O)[C@@H]1C[C@@H]2CCCC[C@@H]2N1; Cha = N[C@@H](CC1CCCCC1)C(=O)O; Tle = CC(C)(C)[C@H](N)C(=O)O; Nicotinoyl = O=C(c1cccnc1)*; Acm = CC(=O)NC*

The target of one data set is rhEphA2 (Homo sapiens, UniProt P29317). Nature of the data set: SPR binding to immobilized rhEphA2 (Biacore 3000). The arrangement: purchased R&D Systems, Inc., Minneapolis, Minn. The procedure: (§1) Binding to selected ephrin receptors was measured by surface plasmon resonance on a Biacore3000 instrument. Commercially available ephrin receptors: EphA2, EphB2 and EphB4 (R&D Systems) were immobilized on a CM-5 chip by amine coupling and tested peptides were passed over a chip surface as analytes.
(§2) Binding studies. Binding studies were performed by surface plasmon resonance (SPR) on a BIAcore 3000 system (BiaCore AB, Piscataway, N.J.). BIAcore CM5 sensor chips were utilized in all experiments. Binding studies were performed in HBS-EP running buffer (pH=7.4) containing 10 mM HEPES, 150 mM NaCl, 3 mM EDTA, and 0.005% polysorbate 20. Commercially available ephrin receptors: EphA2, EphB2 and EphB4 (R&D Systems, Inc., Minneapolis, Minn.) were immobilized on a CM5 sensor chip using the amine coupling method. The chip was activated by mixing 400 mM N-ethyl-N-(3-dimethylaminopropyl)-carbodiimide hydrochloride and 100 mM N-hydroxysuccinimide. Residual reactive groups on the chip surface were blocked using 1.0 M ethanolamine/HCl (pH=8.5). The flow cell-1 chip, which served as a control, lacked immobilized protein but was treated with N-ethyl-N-(3-dimethylaminopropyl)-carbodiimide hydrochloride, N hydroxysuccinimide, and ethanolamine/HCl. Binding signals were corrected for nonspecific binding by subtracting the flow cell-1 signal (blank surface). To regenerate chip surfaces, bound ligands were removed with 10 mM HCl. Data were analyzed with BIAevaluation 4.1 software (Biacore, Piscataway, N.J.).

In data set [1] the test system is human red blood cells (hRBCs). The protocol:
Human red blood cells (hRBCs). Fresh blood (˜3 ml) was collected from an anonymous donor into a tube that contained heparin as an anticoagulant. An aliquot of blood (200 μl) was removed and washed 4 with 800 μl of cold PBS at room temperature, each centrifugation was for 3 minutes at ˜500×g. A total of 780 μl of supernatant was removed each time. With four washes, this procedure should remove >99.8% of the total serum protein and any heparin anticoagulant. The supernatant was completely removed in the last wash, leaving only the packed red blood cells, which were subsequently diluted 1:20 in PBS to make 5% v/v stock of hRBCs.
Hemolysis assay. The experiments were carried out as previously described. Briefly, 2.5% v/v normal human RBCs were exposed to various concentrations of AzV36-NicL at 37° C. for 30 min. All experiment were carried out in triplicate using 96-well microplate (Costar 3596) and OD at 700 nm was monitored every 30 s. employing the SpectraMAX 250 microplate reader (Molecular Devices, Sunnyvale, Calif.). Controls: PBS, human RBCs, human RBCs+2.5% Triton (100% lysis). The hemolytic effect was calculated as following: […]

A further data set is described as follows: in vitro. To be noted: for peptide concentration remaining in human serum ± SEM (AUC): 37° C. The protocol:
Serum stability. Human blood serum was prepared using BD Vacutainer→Rapid Serum Tubes (RST) (BD Diagnostics, Franklin Lakes, N.J.) according to manufacturer's recommendations. Serum was harvested and either used fresh or stored at −80° C. Stability of the AzV36-NicL in the human serum was determined as previously described. Briefly, 50 μl of an aqueous peptide stock solution (10 mg/ml) was added to 1.95 ml of 25% pooled, non-heat inactivated human serum in PBS and incubated at 37° C. […] The resulting mixtures were kept at 5° C. for 10 min and then centrifuged at 300 g for 5 min. 100 μl of the supernatants were analyzed using analytical ProStar 210 HPLC system with a ProStar 325 Dual Wavelength detector set at 220 nm and 280 nm (Varian Inc., Palo Alto, Calif.). The mobile phases were: Solvent A, 0.1% TFA (trifluoroacetic acid) in water; solvent B, 0.1% TFA in acetonitrile. Experiments were performed using Vydac 218TP54 C18 column, 4.6×250 mm, 5 μM (Grace Vydac, Hesperia, Calif.) in a linear 0 to 100% gradient of solvent B applied over 100 min at 1 ml/min.

The next data set deals with rhEphB2/Fc (Homo sapiens, UniProt P29323). Nature of the data set: SPR binding to immobilized rhEphB2/Fc (Biacore 3000). The arrangement: Fc; purchased R&D Systems, Inc., Minneapolis, Minn. The procedure: as §1, §2
Data set [2] is described as follows: MultiTox-Fluor Multiplex Cytotoxicity Assay, RAW 264.7 cells. It counts as cell-based. Conditions: mouse, 24 h co-culture, read-out: LD50, RAW cells. The protocol: Experiments were carried out using MultiTox-Fluor Multiplex Cytotoxicity Assay (Promega Corp., Madison, Wis.) as previously described. This assay simultaneously measures the number of live and dead cells in culture wells based on the activity of two proteases, one a marker of cell viability, and the other a marker of cytotoxicity, which yield products with different excitation and emission spectra. Briefly, for cytotoxicity experiments murine LCC (or RAW 264.7) cells were plated in a 96-well plate at a density of 1×10^4 cells/well in a total volume of 50 μl of culture media and treated with various concentrations of tested peptides (50 μl of 0-400 μM peptides in culture media). Cells' viability was assessed 24 h later by MultiTox-Fluor Multiplex Cytotoxicity Assay (incubation time 1 h). For cell viability experiments, LCC cells were plated in a 96-well plate at a density of 5×10^3 cells/well in a total volume of 50 μl of culture media and treated with various concentrations of tested peptide (50 μl of 0-200 μM peptide in culture media) for 1 hour prior to 0, 2, 4 Gy irradiation. Cell viability was assessed 72 h later by MultiTox-Fluor Multiplex Cytotoxicity Assay (incubation time 1 h). All experiments were carried out in triplicates.

The mark [3] stands for this setting: human, 25% pooled, non-heat inactivated human serum in PBS.

Regarding `CC(=O)NCSC[C@H](NC(=O)[C@H](CC1CCCCC1)NC(=O)[C@H](CC1CCCCC1)NC(=O)[C@@H](CCCCNC(=O)c1cccnc1)NC(=O)[C@@H](N)Cc1ccc(O)cc1)C(=O)N[C@H](C(=O)N[C@@H](CC1CCCCC1)C(=O)N1[C@H](C(=O)N[C@H](CCCNC(=N)N)C(=O)N[C@@H](Cc2c[nH]cn2)C(=O)N[C@@H](CCCNC(=N)N)C(=O)N[C@H](C(=O)N[C@@H](CC2CCCCC2)C(=O)N[C@@H](CSCNC(C)=O)C(=O)N[C@H](CCCCN)C(N)=O)[C@@H](C)O)C[C@@H]2CCCC[C@@H]21)C(C)(C)C` [AzV36-NicL, YkNic-Cha-Cha-Cam-Tle-Cha-Oic-rHRT-Cha-Cam-k-CONH] (H-Y[dK](Nicotinoyl)[Cha][Cha]C(Acm)[Tle][Cha][Oic][dR]HRT[Cha]C(Acm)[dK]-NH2), the results for the Kd at rhEphA2 and at rhEphB2/Fc were 13.9 ± 2.9 nM and 14.3 ± 3.3 nM, respectively. Moreover, the “Hemolysis ± SEM” value in data set [1] (20 μM peptide (highest tested), 2.5% hRBCs, 37° C., 30 min) is on record as 9.3±3.0%. Further, in data set [1] (≦10 μM peptide), the “hemolytic effect (in words)” value is “non-hemolytic”. Also, the “peptide concentration remaining in human serum ± SEM (AUC)” value in the data set “in vitro” (24 h, 25% human serum in PBS) was 100±0.64%; in “in vitro” (6 days) it was 97.8±2.86%. In addition, the amount remaining at 24 h, 0.25 mg/ml in the data set “in vitro” (setting [3]) stood at 100 ± 0.64%. Besides, the amount remaining at 144 h, 0.25 mg/ml in “in vitro” (setting [3]) turned out to be 97.8 ± 2.86%. Besides, the CC50 at 24 h in data set [2] was 10300 ± 780 nM.
